Assay results taken from patent US20260133210A1, “CELL-FREE BIOSENSORS FOR IN VITRO DETECTION OF TARGET MOLECULES” (priority 2022, published 2026).

Tests used:
[1] = tested on: cell-free protein synthesis; experiment: Titration of analyte against an unregulated reporter plasmid (pT7-sfGFP) in a cell-free reaction; format: biochemical, E. coli; conditions: 100 μM CuSO4
Procedure: A series of tuning experiments are next used to optimize the sensor. First, the optimal concentration of the aTF (CueR) is found for the non-cascaded sensor (e.g., pCue-sfGFP) through a series of ratiometric titrations between the aTF-enriched extract and the blank extract in both the presence and absence of analyte (see e.g., the data in FIG. 7). This experiment is an isothermal cell-free gene expression reaction held at 30° C. in a plate reader for […] using an established set of physiochemical conditions to maximize protein production in general. It may also be necessary to determine the concentration of analyte that saturates the cell-free sensor without inhibiting transcription and translation in vitro, which can be done with a simple titration of analyte against an unregulated reporter plasmid (e.g., pT7-sfGFP).

PbCl2 = experiment: Hand-validation of top PbrR variants from the SSM library screen; format: biochemical, E. coli; conditions: top 10 variants with the highest fold change from each lead concentration
From the text: The top 10 variants with the highest fold change from each lead concentration were hand-validated to validate the results from the SSM library screen.

lead = experiment: Enriched extract PbrR lead sensors; format: biochemical, E. coli; conditions: FIG. 40 and 41
Procedure: Enriched extract is made by pre-expressing the transcription factor in the E. coli strain before lysing to generate the extract. […] It was also determined that a catechol reporter can be used for improved sensor output. This works by having the PbrR transcription factor bind to PbrO and drive expression of an enzyme that catalyzes a colorimetric change in catechol.

For mf-Lon, the “decay of sfGFP signal (protein degradation) on mixing extracts” value (pdt-tagged sfGFP) was “Increasing the concentration of mf-Lon and supplying additional ATP (a co-substrate for the reaction) results in some signal decay”.

With O=S(=O)([O-])[O-].[Cu+2] [CuSO4] the “effect on cell-free protein synthesis” value [1] was “shuts down cell-free protein synthesis”.

B1: M60F (protein)
chain: MNIQIGELAKRTACPVVTIRFYEQEGLLPPPGRSRGNFRLYGEEHVERLQFIRHCRSLDFPLSDVRTLLSYRKRPDQDCGEVNMLLDEHIRQVESRIGALLELKHHLVELREACSGARPAQSCGILQGLSDCVCDTRGTTAHPSD
modifications: Cupriavidus metallidurans
B1 was tested, and the “behaviour in the hand-validated SSM results” value (PbCl2) was “bind the promoter regardless of whether or not the ligand (lead) is present”.

B2: G128I, D64K, M60L, and P61N: quadruple variant of PbrR (SEQ ID NO: 47) (protein)
chain: MNIQIGELAKRTACPVVTIRFYEQEGLLPPPGRSRGNFRLYGEEHVERLQFIRHCRSLDLNLSKVRTLLSYRKRPDQDCGEVNMLLDEHIRQVESRIGALLELKHHLVELREACSGARPAQSCGILQILSDCVCDTRGTTAHPSD
modifications: Cupriavidus metallidurans
For B2, the “lead detection in enriched extract” value (lead) was “can detect lead at the limit of detection”.

B3: M60L (protein)
chain: MNIQIGELAKRTACPVVTIRFYEQEGLLPPPGRSRGNFRLYGEEHVERLQFIRHCRSLDLPLSDVRTLLSYRKRPDQDCGEVNMLLDEHIRQVESRIGALLELKHHLVELREACSGARPAQSCGILQGLSDCVCDTRGTTAHPSD
modifications: Cupriavidus metallidurans
In the case of B3, the “behaviour in the hand-validated SSM results” value (PbCl2) is reported as “promising”.
